Laboratory results from patent US20140274782A1, “AFFINITY REAGENTS AND METHODS FOR DETECTION, PURIFICATION, AND PROTEOMIC ANALYSIS OF METHYLATED PROTEINS” (The Board of Trustees of the Leland Stanford Junior …, priority 2013, published 2014).

T1: G9a and GLP (Homo sapiens, UniProt Q96KQ7+Q9H9B1)
T1 sequence (Q96KQ7 2-1210 limits assumed): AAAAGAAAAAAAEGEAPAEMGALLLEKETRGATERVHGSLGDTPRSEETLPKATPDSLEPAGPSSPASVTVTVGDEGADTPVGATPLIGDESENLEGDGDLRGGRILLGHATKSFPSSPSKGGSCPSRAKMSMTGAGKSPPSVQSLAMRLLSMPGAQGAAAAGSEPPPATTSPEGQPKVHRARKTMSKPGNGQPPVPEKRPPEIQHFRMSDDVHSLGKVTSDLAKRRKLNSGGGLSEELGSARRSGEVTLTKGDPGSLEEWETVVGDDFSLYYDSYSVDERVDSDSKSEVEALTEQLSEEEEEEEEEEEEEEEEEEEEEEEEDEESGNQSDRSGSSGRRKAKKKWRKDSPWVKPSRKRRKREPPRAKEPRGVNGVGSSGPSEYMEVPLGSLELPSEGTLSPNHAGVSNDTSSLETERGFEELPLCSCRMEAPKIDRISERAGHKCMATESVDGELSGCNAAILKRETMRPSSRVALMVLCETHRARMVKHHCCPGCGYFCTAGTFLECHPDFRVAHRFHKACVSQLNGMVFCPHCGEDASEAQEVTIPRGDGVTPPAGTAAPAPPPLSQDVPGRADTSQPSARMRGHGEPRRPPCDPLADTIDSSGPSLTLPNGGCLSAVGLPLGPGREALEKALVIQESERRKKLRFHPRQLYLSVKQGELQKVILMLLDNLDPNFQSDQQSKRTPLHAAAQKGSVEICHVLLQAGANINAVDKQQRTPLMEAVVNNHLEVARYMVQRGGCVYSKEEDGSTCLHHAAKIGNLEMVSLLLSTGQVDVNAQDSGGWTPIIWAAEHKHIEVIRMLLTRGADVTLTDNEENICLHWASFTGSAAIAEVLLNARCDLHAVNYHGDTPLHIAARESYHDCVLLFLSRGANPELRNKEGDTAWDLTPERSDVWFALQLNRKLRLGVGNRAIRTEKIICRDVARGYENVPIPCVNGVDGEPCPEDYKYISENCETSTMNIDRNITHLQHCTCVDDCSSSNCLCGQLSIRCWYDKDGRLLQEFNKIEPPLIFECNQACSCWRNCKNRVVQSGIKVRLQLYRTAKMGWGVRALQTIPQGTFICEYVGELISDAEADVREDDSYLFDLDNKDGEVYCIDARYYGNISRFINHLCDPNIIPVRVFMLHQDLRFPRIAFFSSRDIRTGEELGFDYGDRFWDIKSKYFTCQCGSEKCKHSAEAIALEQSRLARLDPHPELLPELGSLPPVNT
T1 sequence (Q9H9B1 2-1298 limits assumed): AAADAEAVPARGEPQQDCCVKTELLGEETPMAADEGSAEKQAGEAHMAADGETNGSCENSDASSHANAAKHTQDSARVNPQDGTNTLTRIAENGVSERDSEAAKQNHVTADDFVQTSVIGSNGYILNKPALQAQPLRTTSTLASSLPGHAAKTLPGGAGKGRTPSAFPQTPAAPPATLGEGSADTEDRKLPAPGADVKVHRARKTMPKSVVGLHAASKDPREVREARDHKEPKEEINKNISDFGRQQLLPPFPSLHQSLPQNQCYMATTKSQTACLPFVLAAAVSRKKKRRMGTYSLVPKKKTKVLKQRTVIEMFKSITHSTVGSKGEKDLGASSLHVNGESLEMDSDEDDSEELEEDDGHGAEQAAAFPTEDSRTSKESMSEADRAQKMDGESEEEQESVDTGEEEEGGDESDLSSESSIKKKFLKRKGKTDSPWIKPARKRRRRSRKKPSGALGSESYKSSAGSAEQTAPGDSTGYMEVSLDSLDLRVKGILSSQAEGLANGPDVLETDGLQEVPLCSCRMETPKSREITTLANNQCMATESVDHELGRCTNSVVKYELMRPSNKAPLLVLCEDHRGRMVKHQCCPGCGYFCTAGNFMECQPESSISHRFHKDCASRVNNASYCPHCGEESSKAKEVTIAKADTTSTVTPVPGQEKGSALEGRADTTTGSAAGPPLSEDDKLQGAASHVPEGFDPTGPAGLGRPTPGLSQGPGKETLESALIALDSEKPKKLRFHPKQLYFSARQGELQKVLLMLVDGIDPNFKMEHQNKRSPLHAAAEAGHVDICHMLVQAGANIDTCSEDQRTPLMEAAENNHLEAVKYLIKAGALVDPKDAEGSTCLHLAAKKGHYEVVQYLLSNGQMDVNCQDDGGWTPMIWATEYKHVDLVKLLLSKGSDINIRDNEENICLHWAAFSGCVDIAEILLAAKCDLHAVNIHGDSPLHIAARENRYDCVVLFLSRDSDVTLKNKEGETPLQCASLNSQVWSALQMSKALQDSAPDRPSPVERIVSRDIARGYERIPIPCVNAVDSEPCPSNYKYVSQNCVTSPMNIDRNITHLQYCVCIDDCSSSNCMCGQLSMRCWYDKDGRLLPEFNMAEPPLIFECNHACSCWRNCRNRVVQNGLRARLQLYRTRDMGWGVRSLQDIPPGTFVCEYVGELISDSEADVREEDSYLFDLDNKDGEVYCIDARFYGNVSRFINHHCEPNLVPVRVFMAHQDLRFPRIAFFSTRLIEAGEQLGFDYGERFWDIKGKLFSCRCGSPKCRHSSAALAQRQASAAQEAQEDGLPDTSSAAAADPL

B1: ZC3H11A (protein, UniProt O75152 1-810, looked up)
Zinc finger CCCH …: MPNQGEDCYFFFYSTCTKGDSCPFRHCEAAIGNETVCTLWQEGRCFRQVCRFRHMEIDKKRSEIPCYWENQPTGCQKLNCAFHHNRGRYVDGLFLPPSKTVLPTVPESPEEEVKASQLSVQQNKLSVQSNPSPQLRSVMKVESSENVPSPTHPPVVINAADDDEDDDDQFSEEGDETKTPTLQPTPEVHNGLRVTSVRKPAVNIKQGECLNFGIKTLEEIKSKKMKEKSKKQGEGSSGVSSLLLHPEPVPGPEKENVRTVVRTVTLSTKQGEEPLVRLSLTERLGKRKFSAGGDSDPPLKRSLAQRLGKKVEAPETNIDKTPKKAQVSKSLKERLGMSADPDNEDATDKVNKVGEIHVKTLEEILLERASQKRGELQTKLKTEGPSKTDDSTSGARSSSTIRIKTFSEVLAEKKHRQQEAERQKSKKDTTCIKLKIDSEIKKTVVLPPIVASRGQSEEPAGKTKSMQEVHIKTLEEIKLEKALRVQQSSESSTSSPSQHEATPGARRLLRITKRTGMKEEKNLQEGNEVDSQSSIRTEAKEASGETTGVDITKIQVKRCETMREKHMQKQQEREKSVLTPLRGDVASCNTQVAEKPVLTAVPGITRHLTKRLPTKSSQKVEVETSGIGDSLLNVKCAAQTLEKRGKAKPKVNVKPSVVKVVSSPKLAPKRKAVEMHAAVIAAVKPLSSSSVLQEPPAKKAAVAVVPLVSEDKSVTVPEAENPRDSLVLPPTQSSSDSSPPEVSGPSSSQMSMKTRRLSSASTGKPPLSVEDDFEKLIWEISGGKLEAEIDLDPGKDEDDLLLELSEMIDS
B2: RFC1 (protein, UniProt P35251 1-1148, looked up)
Replication factor C subunit 1: MDIRKFFGVIPSGKKLVSETVKKNEKTKSDEETLKAKKGIKEIKVNSSRKEDDFKQKQPSKKKRIIYDSDSESEETLQVKNAKKPPEKLPVSSKPGKISRQDPVTYISETDEEDDFMCKKAASKSKENGRSTNSHLGTSNMKKNEENTKTKNKPLSPIKLTPTSVLDYFGTGSVQRSNKKMVASKRKELSQNTDESGLNDEAIAKQLQLDEDAELERQLHEDEEFARTLAMLDEEPKTKKARKDTEAGETFSSVQANLSKAEKHKYPHKVKTAQVSDERKSYSPRKQSKYESSKESQQHSKSSADKIGEVSSPKASSKLAIMKRKEESSYKEIEPVASKRKENAIKLKGETKTPKKTKSSPAKKESVSPEDSEKKRTNYQAYRSYLNREGPKALGSKEIPKGAENCLEGLIFVITGVLESIERDEAKSLIERYGGKVTGNVSKKTNYLVMGRDSGQSKSDKAAALGTKIIDEDGLLNLIRTMPGKKSKYEIAVETEMKKESKLERTPQKNVQGKRKISPSKKESESKKSRPTSKRDSLAKTIKKETDVFWKSLDFKEQVAEETSGDSKARNLADDSSENKVENLLWVDKYKPTSLKTIIGQQGDQSCANKLLRWLRNWQKSSSEDKKHAAKFGKFSGKDDGSSFKAALLSGPPGVGKTTTASLVCQELGYSYVELNASDTRSKSSLKAIVAESLNNTSIKGFYSNGAASSVSTKHALIMDEVDGMAGNEDRGGIQELIGLIKHTKIPIICMCNDRNHPKIRSLVHYCFDLRFQRPRVEQIKGAMMSIAFKEGLKIPPPAMNEIILGANQDIRQVLHNLSMWCARSKALTYDQAKADSHRAKKDIKMGPFDVARKVFAAGEETAHMSLVDKSDLFFHDYSIAPLFVQENYIHVKPVAAGGDMKKHLMLLSRAADSICDGDLVDSQIRSKQNWSLLPAQAIYASVLPGELMRGYMTQFPTFPSWLGKHSSTGKHDRIVQDLALHMSLRTYSSKRTVNMDYLSLLRDALVQPLTSQGVDGVQDVVALMDTYYLMKEDFENIMEISSWGGKPSPFSKLDPKVKAAFTRAYNKEAHLTPYSLQAIKASRHSTSPSLDSEYNEELNEDDSQSDEKDQDAIETDAMIKKKTKSSKPSKPEKDKEPRKGKGKSSKK
B3: CHERP (protein, UniProt Q8IWX8 1-916, looked up)
Calcium homeostasis …: MEMPLPPDDQELRNVIDKLAQFVARNGPEFEKMTMEKQKDNPKFSFLFGGEFYSYYKCKLALEQQQLICKQQTPELEPAATMPPLPQPPLAPAAPIPPAQGAPSMDELIQQSQWNLQQQEQHLLALRQEQVTAAVAHAVEQQMQKLLEETQLDMNEFDNLLQPIIDTCTKDAISAGKNWMFSNAKSPPHCELMAGHLRNRITADGAHFELRLHLIYLINDVLHHCQRKQARELLAALQKVVVPIYCTSFLAVEEDKQQKIARLLQLWEKNGYFDDSIIQQLQSPALGLGQYQATLINEYSSVVQPVQLAFQQQIQTLKTQHEEFVTSLAQQQQQQQQQQQQLQMPQMEAEVKATPPPPAPPPAPAPAPAIPPTTQPDDSKPPIQMPGSSEYEAPGGVQDPAAAGPRGPGPHDQIPPNKPPWFDQPHPVAPWGQQQPPEQPPYPHHQGGPPHCPPWNNSHEGMWGEQRGDPGWNGQRDAPWNNQPDAAWNSQFEGPWNSQHEQPPWGGGQREPPFRMQRPPHFRGPFPPHQQHPQFNQPPHPHNFNRFPPRFMQDDFPPRHPFERPPYPHRFDYPQGDFPAEMGPPHHHPGHRMPHPGINEHPPWAGPQHPDFGPPPHGFNGQPPHMRRQGPPHINHDDPSLVPNVPYFDLPAGLMAPLVKLEDHEYKPLDPKDIRLPPPMPPSERLLAAVEAFYSPPSHDRPRNSEGWEQNGLYEFFRAKMRARRRKGQEKRNSGPSRSRSRSKSRGRSSSRSNSRSSKSSGSYSRSRSRSCSRSYSRSRSRSRSRSRSSRSRSRSQSRSRSKSYSPGRRRRSRSRSPTPPSSAGLGSNSAPPIPDSRLGEENKGHQMLVKMGWSGSGGLGAKEQGIQDPIKGGDVRDKWDQYKGVGVALDDPYENYRRNKSYSFIARMKARDECK

Tested on: 3×MBT domain of L3MBTL1
Test: Triple SILAC pull-down, 3xMBT/3xMBTD355N ratio (cytoplasmic, nuclear and chromatin fractions of 293T cells);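 note: proteins quantified with MaxQuant, requiring at least two unique peptides and quantification in both label directions, normalized to the mean of proteins from a digested loading control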
Type: binding, human
Conditions: SILAC ratio, pull-down 3xMBT vs 3xMBTD355N; experiment with UNC0638 in heavy SILAC media

Molecule	3xMBT/D355N UNC Heavy [log base 2]
B1	2.23
B2	1.29
B3	1.58

Same assay, conditions: SILAC ratio, pull-down 3xMBT vs 3xMBTD355N; experiment with UNC0638 in light SILAC media

Molecule	3xMBT/D355N UNC Light [log base 2]
B1	2.81
B2	−1.32
B3	2.26

Target: T1, G9a and GLP
Test: Triple SILAC pull-down after UNC0638 treatment of 293T cells, DMSO/UNC0638 ratio of protein captured by 3×MBT;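 note: mass spectrometry (Q-Exactive) SILAC quantitation, DMSO/UNC0638 ratio computed after subtracting 3×MBTD355N mutant pull-down background, only proteins with at least twofold 3×MBT over mutant signal considered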
Type: cell-based
Parameters: cells were treated for 24 hours with UNC0638 at 2.5 μM or DMSO vehicle control; endogenous in cells; host or cells: HEK 293T
Conditions: SILAC ratio DMSO/UNC0638 of protein pulled down with 3xMBT; UNC0638 in heavy SILAC media

Relative to UNC0638 UNC Heavy [log base 2]	Molecule
0.32	B1
0.61	B2
0.38	B3

Same assay, conditions: SILAC ratio DMSO/UNC0638 of protein pulled down with 3xMBT; UNC0638 in light SILAC media

Relative to UNC0638 UNC Light [log base 2]	Molecule
0.12	B1
−0.18	B2
0.05	B3

Same assay, conditions: average of UNC Light and UNC Heavy experiments

Relative to UNC0638 Average [log base 2]	Molecule
0.22	B1
0.21	B2
0.22	B3
